In PMC6377231, “Structure of a bacterial ATP synthase” (eLife, 2019):

B1: Bacillus PS3 ATP synthase subunit ε (natural protein, UniProt P07678 1-132, looked up)
chain: MKTIHVSVVTPDGPVYEDDVEMVSVKAKSGELGILPGHIPLVAPLEISAARLKKGGKTQYIAVSGGFLEVRPDNVTILAQAAERAEDIDVLRAKARKSGRTPLQSQQDDIDFKRAELALKRAMNRLSVAEMK
notes: ATP synthase subunit epsilon of Bacillus PS3, expressed from plasmid pTR-ASDS (Suzuki et al., 2002); source: E. coli strain DK8, plasmid pTR-ASDS; purified as part of the intact ATP synthase (GDN, HisTrap, Superose 6)
B2: Bacillus PS3 ATP synthase subunit c (natural protein)
chain: MSLGVLAAAIAVGLGALGAGIGNGLIVSRTIEGIARQPELRPVLQTTMFIGVALVEALPIIGVVFSFIYLGR
notes: ATP synthase subunit c of Bacillus PS3, expressed from plasmid pTR-ASDS (Suzuki et al., 2002); Forms the ring of 10 c-subunits in the FO region; also called c-ring; c10-ring; source: E. coli strain DK8, plasmid pTR-ASDS; purified as part of the intact ATP synthase (GDN, HisTrap, Superose 6); copies: 10

Legend:
Experiment in all cases: cryo-EM structure; intact Bacillus PS3 ATP synthase in GDN, three rotational states at 3.0, 3.0 and 3.2 Å; focused refinement of the membrane-embedded region at 3.3 Å
[1] = target: T1, Bacillus PS3 ATP synthase subunit γ (Bacillus PS3, UniProt P09222 5-286); conditions: both partners purified
T1 construct: ATP synthase subunit gamma of Bacillus PS3, expressed from plasmid pTR-ASDS (Suzuki et al., 2002); source: E. coli strain DK8, plasmid pTR-ASDS; purified as part of the intact ATP synthase (GDN, HisTrap, Superose 6)

[2] = target: T2, Bacillus PS3 ATP synthase subunit α (Bacillus PS3, UniProt P09219 1-502); conditions: both partners purified
T2 construct: ATP synthase subunit alpha of Bacillus PS3, expressed from plasmid pTR-ASDS (Suzuki et al., 2002); Three copies stand in the complex (α3β3γδε ab2c10); Residues in the model are in Supplementary file 1; also called αDP; source: E. coli strain DK8, plasmid pTR-ASDS; purified as part of the intact ATP synthase (GDN, HisTrap, Superose 6)

[3] = target: the molecule itself

T1 sequence (P09222 5-286): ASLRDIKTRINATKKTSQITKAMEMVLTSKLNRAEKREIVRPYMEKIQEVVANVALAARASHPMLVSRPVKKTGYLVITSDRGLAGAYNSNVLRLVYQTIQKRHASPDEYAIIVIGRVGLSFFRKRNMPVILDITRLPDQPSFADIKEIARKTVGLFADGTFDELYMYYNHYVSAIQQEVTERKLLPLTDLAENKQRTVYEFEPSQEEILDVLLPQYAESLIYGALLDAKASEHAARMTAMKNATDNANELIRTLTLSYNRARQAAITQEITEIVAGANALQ
T2 sequence (P09219 whole entry): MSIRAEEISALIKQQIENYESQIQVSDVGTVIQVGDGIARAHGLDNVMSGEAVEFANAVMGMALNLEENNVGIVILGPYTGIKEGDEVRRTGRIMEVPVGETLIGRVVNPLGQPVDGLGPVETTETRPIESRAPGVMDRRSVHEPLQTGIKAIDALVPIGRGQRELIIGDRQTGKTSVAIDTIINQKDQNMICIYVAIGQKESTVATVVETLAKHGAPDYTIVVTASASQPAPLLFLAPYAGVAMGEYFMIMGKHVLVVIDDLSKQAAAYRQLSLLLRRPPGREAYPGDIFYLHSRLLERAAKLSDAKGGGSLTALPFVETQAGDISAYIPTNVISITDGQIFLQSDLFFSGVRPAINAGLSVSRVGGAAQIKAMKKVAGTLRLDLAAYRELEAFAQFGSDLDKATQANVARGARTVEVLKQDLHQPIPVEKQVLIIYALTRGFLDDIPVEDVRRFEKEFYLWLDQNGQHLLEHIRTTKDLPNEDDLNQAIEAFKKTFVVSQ

Binder	binding result [1]	binding result [2]	stoichiometry N [3]
B1	binds	binds	–
B2	–	–	10
